US6884616

Columns and labels:
[1] = target: Mononine (purified Factor IX) (UniProt P00740)
[2] = target: Recombinant human Factor IX immunoprecipitated from supernatants of GPIIb-FIX(WT.I1)-transfected HEL cells (UniProt P00740)

Factor XIa (Enzyme Research Lab., Swansea, UK)
FIX cleavage after incubation with FXIa (rate of activation and protein profile) [1]: The rate of activation and the protein profile from HEL supernatants was similar to the results obtained with Mononine
FIX cleavage after incubation with FXIa (immunoblot of immunoprecipitated FIX, enzyme/substrate 1/40) [2]: activation of the immunoprecipitated FIX from HEL cells resulted in the appearance of two bands corresponding to the heavy chain (29 kDa) and the light chain (19 kDa)
